Assay results published in paper PMC12046560.

Biological target: Neorhodopsin (NeoR) rhodopsin module from Rhizoclosmatium globosum, residues 1-279 (Rhizoclosmatium globosum)
Assay: cryo-EM structure; single-particle cryo-EM of purified NeoR in LMNG/CHS, 50 mM Hepes pH 7.4, 100 mM NaCl, after two SEC steps (monodisperse, single oligomeric state); 4.80 Å map refined under C1; two AlphaFold2 monomers fitted into the map

## Neorhodopsin (NeoR) rhodopsin module from Rhizoclosmatium globosum, residues 1-279 (domain or fragment)
  stoichiometry N: 2
